Experimental data from the supplement of paper PMC5998384.

How the values were obtained:
HeLa Kyoto [1] = assay: solubility change mitosis vs G1/S (difference of NP-40 vs SDS log2 ratios) (log2 ratio difference); higher = more soluble in mitosis
HeLa Kyoto [2] = assay: melting temperature (median over replicates), in situ; higher = more thermally stable
HeLa Kyoto [3] = assay: thermal stability score vs G1/S (z-score of summed log2 fold changes over temperatures); higher = more thermally stable than in G1/S
HeLa Kyoto [4] = assay: solubility in G1/S (NP-40 vs SDS abundance) (log2 ratio); higher = more soluble; details: cell cycle stage: G1/S
[5] = cell cycle stage: early G1 (4.5 h after nocodazole release)
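Throughout, for melting temperature (median over replicates), in situ: HeLa Kyoto cells synchronized by double thymidine or nocodazole block, proteins quantified by TMT10plex mass spectrometry, three independent biological replicates.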
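Throughout, for solubility change mitosis vs G1/S (difference of NP-40 vs SDS log2 ratios): synchronized HeLa Kyoto cells (double thymidine block for G1/S, nocodazole release for mitosis), protein amounts in NP-40 versus SDS lysates quantified by mass spectrometry, three biological replicates.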
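Throughout, for solubility in G1/S (NP-40 vs SDS abundance): HeLa Kyoto cells arrested at G1/S by double thymidine block, proteins quantified by TMT10plex mass spectrometry in mild NP-40 versus SDS extracts, three biological replicates.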
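Throughout, for thermal stability score vs G1/S (z-score of summed log2 fold changes over temperatures): synchronized HeLa Kyoto cells, proteins quantified by TMT10plex mass spectrometry, three biological replicates, mitosis taken 0.5 h after nocodazole release, G1/S directly after double thymidine block.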

Row | Sequence | solubility change mitosis (log2) (HeLa Kyoto [1]) | melting temperature (HeLa Kyoto [2]; cell cycle stage: G1/S) [°C] | melting temperature (HeLa Kyoto [2]; cell cycle stage: mitosis) [°C] | thermal stability score (HeLa Kyoto [3]; [5]) | thermal stability score (HeLa Kyoto [3]; cell cycle stage: mitosis) | solubility in G1/S (log2) (HeLa Kyoto [4])
1 | MSEHVEPAAPGPGPNGGGGGPAPARGPRTPNLNPNPLINVRDRLFHALFFKMAVTYSRLFPPAFRRLFEFFVLLKALFVLFVLAYIHIVFSRSPINCLEHVRDKWPREGILRVEVRHNSSRAPVFLQFCDSGGRGSFPGLAVEPGSNLDMEDEEEEELTMEMFGNSSIKFELDIEPKVFKPPSSTEALNDSQEFPFPETPTKVWPQDEYIVEYSLEYGFLRLSQATRQRLSIPVMVVTLDPTRDQCFGDRFSRLLLDEFLGYDDILMSSVKGLAENEENKGFLRNVVSGEHYRFVSMWMARTSYLAAFAIMVIFTLSVSMLLRYSHHQIFVFIVDLLQMLEMNMAIAFPAAPLLTVILALVGMEAIMSEFFNDTTTAFYIILIVWLADQYDAICCHTSTSKRHWLRFFYLYHFAFYAYHYRFNGQYSSLALVTSWLFIQHSMIYFFHHYELPAILQQVRIQEMLLQAPPLGPGTPTALPDDMNNNSGAPATAPDSAGQPPALGPVSPGASGSPGPVAAAPSSLVAAAASVAAAAGGDLGWMAETAAIITDASFLSGLSASLLERRPASPLGPAGGLPHAPQDSVPPSDSAASDTTPLGAAVGGPSPASMAPTEAPSEVGS [TMEM259] | -0.025 | 54.7 | 54.2 | 0.29 | 0.308 | -0.252
2 | MSEKENNFPPLPKFIPVKPCFYQNFSDEIPVEHQVLVKRIYRLWMFYCATLGVNLIACLAWWIGGGSGTNFGLAFVWLLLFTPCGYVCWFRPVYKAFRADSSFNFMAFFFIFGAQFVLTVIQAIGFSGWGACGWLSAIGFFQYSPGAAVVMLLPAIMFSVSAAMMAIAIMKVHRIYRGAGGSFQKAQTEWNTGTWRNPPSREAQYNNFSGNSLPEYPTVPSYPGSGQWP [SCAMP4] | 0.144 | 57 | 60.3 | -1.67 | -2.1 | -0.117
3 | MSELPGDVRAFLREHPSLRLQTDARKVRCILTGHELPCRLPELQVYTRGKKYQRLVRASPAFDYAEFEPHIVPSTKNPHQLFCKLTLRHINKCPEHVLRHTQGRRYQRALCKYEECQKQGVEYVPACLVHRRRRREDQMDGDGPRPREAFWEPTSSDEGGAASDDSMTDLYPPELFTRKDLGSTEDGDGTDDFLTDKEDEKAKPPREKATDEGRRETTVYRGLVQKRGKKQLGSLKKKFKSHHRKPKSFSSCKQPG [SURF2] | 0.0916 | 50.7 | 50.3 | 0.779 | 0.703 | 0.0911
4 | MSENLDNEGPKPMESCGQESSSALSCPTVSVPPAAPAALEEVEKEGAGAATGPGPQPGLYSYIRDDLFTSEIFKLELQNVPRHASFSDVRRFLGRFGLQPHKTKLFGQPPCAFVTFRSAAERDKALRVLHGALWKGRPLSVRLARPKADPMARRRRQEGESEPPVTRVADVVTPLWTVPYAEQLERKQLECEQVLQKLAKEIGSTNRALLPWLLEQRHKHNKACCPLEGVRPSPQQTEYRNKCEFLVGVGVDGEDNTVGCRLGKYKGGTCAVAAPFDTVHIPEATKQVVKAFQEFIRSTPYSAYDPETYTGHWKQLTVRTSRRHQAMAIAYFHPQKLSPEELAELKTSLAQHFTAGPGRASGVTCLYFVEEGQRKTPSQEGLPLEHVAGDRCIHEDLLGLTFRISPHAFFQVNTPAAEVLYTVIQDWAQLDAGSMVLDVCCGTGTIGLALARKVKRVIGVELCPEAVEDARVNAQDNELSNVEFHCGRAEDLVPTLVSRLASQHLVAILDPPRAGLHSKVILAIRRAKNLRRLLYVSCNPRAAMGNFVDLCRAPSNRVKGIPFRPVKAVAVDLFPQTPHCEMLILFERVEHPNGTGVLGPHSPPAQPTPGPPDNTLQETGTFPSS [TRMT2A] | 0.169 | 48.9 | 49.8 | 2.34 | 3.51 | -0.136
5 | MSENSSDSDSSCGWTVISHEGSDIEMLNSVTPTDSCEPAPECSSLEQEELQALQIEQGESSQNGTVLMEETAYPALEETSSTIEAEEQKIPEDSIYIGTASDDSDIVTLEPPKLEEIGNQEVVIVEEAQSSEDFNMGSSSSSQYTFCQPETVFSSQPSDDESSSDETSNQPSPAFRRRRARKKTVSASESEDRLVAEQETEPSKELSKRQFSSGLNKCVILALVIAISMGFGHFYGTIQIQKRQQLVRKIHEDELNDMKDYLSQCQQEQESFIDYKSLKENLARCWTLTEAEKMSFETQKTNLATENQYLRVSLEKEEKALSSLQEELNKLREQIRILEDKGTSTELVKENQKLKQHLEEEKQKKHSFLSQRETLLTEAKMLKRELERERLVTTALRGELQQLSGSQLHGKSDSPNVYTEKKEIAILRERLTELERKLTFEQQRSDLWERLYVEAKDQNGKQGTDGKKKGGRGSHRAKNKSKETFLGSVKETFDAMKNSTKEFVRHHKEKIKQAKEAVKENLKKFSDSVKSTFRHFKDTTKNIFDEKGNKRFGATKEAAEKPRTVFSDYLHPQYKAPTENHHNRGPTMQNDGRKEKPVHFKEFRKNTNSKKCSPGHDCRENSHSFRKACSGVFDCAQQESMSLFNTVVNPIRMDEFRQIIQRYMLKELDTFCHWNELDQFINKFFLNGVFIHDQKLFTDFVNDVKDYLRNMKEYEVDNDGVFEKLDEYIYRHFFGHTFSPPYGPRSVYIKPCHYSSL [CCPG1] | -0.0492 | 53.6 | 53.6 | 1.39 | 2.71 | -0.321
6 | MSESSSKSSQPLASKQEKDGTEKRGRGRPRKQPPVSPGTALVGSQKEPSEVPTPKRPRGRPKGSKNKGAAKTRKTTTTPGRKPRGRPKKLEKEEEEGISQESSEEEQ [HMGA1] | 1.62 |  | 57.6 | -6.52 | -8.11 | 0.583
